Series [1] deals with His14-NEDD8 tagged APD of xtNup98(715-866) (Xenopus tropicalis, UniProt A0A1B8XZT4). The series can be described thus: pull-down.
For series [2], the target named is T1, human Nup98 of HeLa cells (human (endogenous in HeLa), UniProt P52948). The series can be described thus: pull-down.
Series [3] deals with T2, Xenopus Nup98 from egg extract (Xenopus laevis, endogenous in egg …, UniProt A0A8J1MFV7). The series can be described thus: pull-down.
Series [4] concerns the target Xenopus Nup93, target protein of the BLI measurement (Xenopus, UniProt Q7ZX96). The series can be described thus: BLI. On the technique in general: BLI is a label-free optical method that tracks binding on a fibre tip over time.
For series [5], the target named is Xenopus Nup93 from egg extract (Xenopus laevis (endogenous in egg …, UniProt Q7ZX96)). The series can be described thus: pull-down.
Xenopus Nup93 from egg extract (Xenopus laevis, sequence (Q7ZX96 whole entry): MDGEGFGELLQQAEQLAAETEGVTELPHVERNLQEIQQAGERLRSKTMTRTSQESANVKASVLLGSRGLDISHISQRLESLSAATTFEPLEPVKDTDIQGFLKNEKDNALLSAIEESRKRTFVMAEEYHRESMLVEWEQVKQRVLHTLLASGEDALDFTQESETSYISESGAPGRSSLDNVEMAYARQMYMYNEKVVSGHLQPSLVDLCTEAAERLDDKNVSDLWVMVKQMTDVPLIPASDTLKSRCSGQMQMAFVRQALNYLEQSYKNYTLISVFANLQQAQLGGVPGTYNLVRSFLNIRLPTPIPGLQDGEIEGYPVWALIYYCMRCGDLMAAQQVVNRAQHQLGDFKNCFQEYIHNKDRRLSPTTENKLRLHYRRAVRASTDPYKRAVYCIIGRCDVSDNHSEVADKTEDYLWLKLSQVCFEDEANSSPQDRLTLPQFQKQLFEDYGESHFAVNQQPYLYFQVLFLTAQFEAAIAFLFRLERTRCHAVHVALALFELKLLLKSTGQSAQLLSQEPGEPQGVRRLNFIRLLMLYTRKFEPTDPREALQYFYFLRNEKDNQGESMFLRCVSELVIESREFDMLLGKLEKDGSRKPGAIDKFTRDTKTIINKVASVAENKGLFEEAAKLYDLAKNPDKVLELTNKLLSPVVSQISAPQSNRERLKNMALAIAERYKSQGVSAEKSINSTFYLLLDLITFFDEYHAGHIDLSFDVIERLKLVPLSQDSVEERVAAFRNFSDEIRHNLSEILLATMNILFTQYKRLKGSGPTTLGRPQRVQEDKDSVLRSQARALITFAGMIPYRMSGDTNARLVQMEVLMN
For series [6], the target named is human Nup93 from HeLa lysate (human (endogenous in HeLa), UniProt Q8N1F7). The experiment in a line: pull-down.
human Nup93 from HeLa lysate, sequence (Q8N1F7 whole entry): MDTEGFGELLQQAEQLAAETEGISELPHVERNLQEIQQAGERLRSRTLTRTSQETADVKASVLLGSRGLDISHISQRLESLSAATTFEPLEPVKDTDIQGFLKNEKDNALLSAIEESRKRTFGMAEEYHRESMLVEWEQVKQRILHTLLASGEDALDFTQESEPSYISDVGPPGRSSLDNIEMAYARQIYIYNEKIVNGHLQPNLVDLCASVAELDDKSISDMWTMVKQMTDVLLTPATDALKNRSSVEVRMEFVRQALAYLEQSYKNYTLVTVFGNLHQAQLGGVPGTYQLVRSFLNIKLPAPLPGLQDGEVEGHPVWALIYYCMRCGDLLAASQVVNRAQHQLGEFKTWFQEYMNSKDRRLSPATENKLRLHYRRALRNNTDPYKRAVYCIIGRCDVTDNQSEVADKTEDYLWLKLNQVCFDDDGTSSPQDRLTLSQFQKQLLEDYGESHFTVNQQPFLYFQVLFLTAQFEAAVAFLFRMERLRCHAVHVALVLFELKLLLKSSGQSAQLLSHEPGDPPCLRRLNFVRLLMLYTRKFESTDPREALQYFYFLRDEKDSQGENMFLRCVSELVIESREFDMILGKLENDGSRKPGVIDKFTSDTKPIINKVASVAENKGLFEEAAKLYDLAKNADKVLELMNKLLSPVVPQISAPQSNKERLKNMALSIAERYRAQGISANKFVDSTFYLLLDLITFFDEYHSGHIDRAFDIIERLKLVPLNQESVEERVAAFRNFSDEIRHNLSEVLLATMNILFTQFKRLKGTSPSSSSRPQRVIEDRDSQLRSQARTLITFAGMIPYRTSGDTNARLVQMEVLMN
The target of series [7] is xlNup93(168-820) (Xenopus laevis, UniProt Q7ZX96). The experiment in a line: cryo-EM structure.
xlNup93(168-820), sequence (Q7ZX96 168-820): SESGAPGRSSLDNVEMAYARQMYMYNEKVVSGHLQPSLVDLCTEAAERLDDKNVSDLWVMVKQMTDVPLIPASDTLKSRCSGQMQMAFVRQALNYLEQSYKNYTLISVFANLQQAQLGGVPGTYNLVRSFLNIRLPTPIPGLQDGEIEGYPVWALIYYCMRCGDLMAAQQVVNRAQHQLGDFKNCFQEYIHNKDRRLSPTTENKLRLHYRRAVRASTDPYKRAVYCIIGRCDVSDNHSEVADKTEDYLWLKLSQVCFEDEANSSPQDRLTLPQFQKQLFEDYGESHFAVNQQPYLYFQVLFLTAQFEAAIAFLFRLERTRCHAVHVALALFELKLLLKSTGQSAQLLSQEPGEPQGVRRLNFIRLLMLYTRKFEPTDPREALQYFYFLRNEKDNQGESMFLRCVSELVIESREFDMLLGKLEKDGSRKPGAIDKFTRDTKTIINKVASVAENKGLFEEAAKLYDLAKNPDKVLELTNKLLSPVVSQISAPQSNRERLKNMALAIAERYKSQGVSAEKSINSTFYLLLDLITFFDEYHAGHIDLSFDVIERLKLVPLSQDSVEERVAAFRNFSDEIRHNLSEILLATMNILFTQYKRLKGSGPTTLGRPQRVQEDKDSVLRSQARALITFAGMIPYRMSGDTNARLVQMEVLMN
Series [8] deals with the molecule itself. The series can be described thus: crystal structure.
Series [9] has as its target T1, human Nup98 of HeLa cells. The series can be described thus: immunostaining of cells or tissue.
For series [10], the target named is T2, Xenopus Nup98 from egg extract. The series can be described thus: immunostaining of cells or tissue.
Series [11] has as its target hNup35(173-248, the RRM domain) (human, UniProt Q8NFH5). The series can be described thus: crystal structure.
The target of series [12] is human Nup35 in NPCs of HeLa cells (Homo sapiens (HeLa), UniProt Q8NFH5). The series can be described thus: immunostaining of cells or tissue.
human Nup35 in NPCs of HeLa cells, sequence (Q8NFH5 whole entry): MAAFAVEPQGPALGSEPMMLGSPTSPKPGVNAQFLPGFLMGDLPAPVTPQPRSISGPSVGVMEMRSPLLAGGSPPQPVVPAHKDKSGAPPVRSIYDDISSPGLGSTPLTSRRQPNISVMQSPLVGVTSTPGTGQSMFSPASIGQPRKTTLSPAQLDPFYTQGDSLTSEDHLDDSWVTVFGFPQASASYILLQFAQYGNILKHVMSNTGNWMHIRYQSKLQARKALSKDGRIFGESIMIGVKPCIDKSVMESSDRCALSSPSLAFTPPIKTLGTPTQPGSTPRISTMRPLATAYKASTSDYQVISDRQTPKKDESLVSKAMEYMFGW
Series [13] has as its target Xenopus Nup35 from egg extract, in newly assembled NPCs (Xenopus laevis, UniProt I1VEB0). The series can be described thus: immunostaining of cells or tissue.

T1 sequence (P52948 1-880): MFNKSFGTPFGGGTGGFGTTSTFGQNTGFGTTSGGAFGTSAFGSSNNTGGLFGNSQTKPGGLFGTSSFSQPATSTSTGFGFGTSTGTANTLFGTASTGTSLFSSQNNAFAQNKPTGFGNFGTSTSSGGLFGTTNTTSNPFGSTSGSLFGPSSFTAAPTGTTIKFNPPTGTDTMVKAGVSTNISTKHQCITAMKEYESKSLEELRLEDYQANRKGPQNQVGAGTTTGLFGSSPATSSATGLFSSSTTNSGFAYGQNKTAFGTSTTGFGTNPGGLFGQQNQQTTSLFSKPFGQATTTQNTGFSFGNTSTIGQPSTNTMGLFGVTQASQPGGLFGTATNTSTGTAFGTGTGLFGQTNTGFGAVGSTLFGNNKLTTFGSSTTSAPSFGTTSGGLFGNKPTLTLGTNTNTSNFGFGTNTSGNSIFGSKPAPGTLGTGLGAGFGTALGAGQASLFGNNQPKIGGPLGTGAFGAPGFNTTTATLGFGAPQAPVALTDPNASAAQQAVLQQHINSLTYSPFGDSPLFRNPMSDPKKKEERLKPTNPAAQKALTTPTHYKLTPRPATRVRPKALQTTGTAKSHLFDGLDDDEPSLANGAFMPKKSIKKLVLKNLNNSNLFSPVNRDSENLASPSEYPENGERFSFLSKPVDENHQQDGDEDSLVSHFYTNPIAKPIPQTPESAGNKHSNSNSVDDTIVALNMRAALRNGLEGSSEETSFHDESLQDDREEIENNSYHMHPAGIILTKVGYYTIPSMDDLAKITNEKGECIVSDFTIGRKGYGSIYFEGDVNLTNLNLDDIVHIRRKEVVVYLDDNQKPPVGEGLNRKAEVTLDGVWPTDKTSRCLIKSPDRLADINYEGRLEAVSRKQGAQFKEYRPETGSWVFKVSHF
Xenopus Nup93, target protein of the BLI measurement, sequence (Q7ZX96 whole entry): as the sequence (Q7ZX96 whole entry) above

B1: xhNup98-Nb2i (VHH)
VHH: QVQLVESGGGLAKPGGSLRLSCVATGTFRSMEDVGWYRQAPGKDRELVAEITTLGKVTYADSVKGRFTISRDDAKNAVYLQMSDLKSEDTAVYYCNIEADQTKGIGYVVYPYWGQGTRVTVSS
Turning to B1, the binding result in series [1] is reported as “binds”.

B2: (biotin)-Avi-SUMO^Eu1-xhNup98-Nb2i (VHH)
VHH: B1 VHH
In the case of B2, the binding result in series [2] and in [3] was “binds” throughout.

B3: xhNup93-Nb4i, biotinylated at two ectopic cysteines (VHH)
VHH: QVQLVESGGGVVQTGDSLMLSCTVSGHTIDNWAMGWFRQTPRKQREFVAAIDKRGTGAIYGNSVKGRFTVSRDNAKNMVYLRMNSLKPEDTAVYFCAVDQLNAGLGDVSYDYDYWGQGTQVTVSS
As for B3, the binding result in [4] is given as “binds”.

B4: (biotin)-Avi-SUMO^Eu1-xhNup93-Nb4i (VHH)
VHH: B3 VHH
In the case of B4, the binding result in series [5] and in [6] was “binds” throughout.

B5: xhNup93-Nb4i (VHH)
VHH: B3 VHH
Turning to B5, in [7], the binding result is “binds”.

B6: hNup35(173-248, the RRM domain) (domain or fragment)
chain: DSWVTVFGFPQASASYILLQFAQYGNILKHVMSNTGNWMHIRYQSKLQARKALSKDGRIFGESIMIGVKPCIDKSV
For B6, the binding result in [8] is “binds”.

B7: xNup98-Nb1t (VHH)
VHH: QVQLVESGGGPVEAGGSLRLSCAASGRSFSNSVMAWFRQAPGKEREFLSVLNWSSGRTSIADSVKGRFTMSRDPAKITVYLQMNGLKPEDTAVYYCAASNRGSLYTLDNQNRYEDWGQGTQVTVSS
As to B7, the binding result in series [1] is reported as “binds”.

B8: xNup98-Nb1t, fluorophore-labelled (VHH)
VHH: B7 VHH
Regarding B8, the binding result is “no binding (tested: 35 nM)” in series [9] and “binds” in series [10].

B9: xhNup35-Nb1t (VHH)
VHH: QVQLVESGGGLVQAGGSLRLSCVGTGNISSAYTMAWYRQAAGKEREVVAGILNGGSTHYADSVKGRFTISRDNAKNTVYLQMNSLQPEDTGVYCCHVVIESTRFVYDHYWGQGTRVTVSS
On to B9, for which, in series [11], the binding result is “binds”.

B10: xhNup35-Nb1t, fluorophore-labelled (VHH)
VHH: B9 VHH
Take B10: the binding result in series [12] and in [13] was “binds” throughout.

B11: xNup93-Nb2t (VHH)
VHH: DVQLVESGGGLVQPGGSLRLSCVASGFTFSRVGMGWVRQAPGKGLEWVSDINASGGTGYADSVKGRFAISRDNAKNTLYLQMNRLKPEDTAVYYCAKMMDTAMIEAGIIKPAGQGTQVTVSS
On to B11, for which the binding result in [7] is listed as “binds”.

The values are drawn from doi:10.1101/2023.09.12.557426 (bioRxiv, 2023).
